Experiments:
Assay in all cases: cell-based or functional assay
[1] = target: HIV Env of isolate 16936-2.21 (HIV)
[2] = target: Env of HIV isolate ZM215.8 (clade C) (HIV)
[3] = target: Env of HIV isolate Q769.h5 (clade A) (HIV)
[4] = target: HIV Env of isolate 00836-2.5 (HIV)
[5] = target: HIV Env of isolate CNE30 (HIV)
[6] = target: Env of HIV isolate Q769.d22 (clade A) (HIV)
[7] = target: Env of HIV isolate Q842.d12 (clade A) (HIV)
[8] = target: HIV Env of isolate CNE53 (HIV)
[9] = target: Env of HIV isolate PVO.04 (clade B) (HIV)
[10] = target: Env of HIV isolate R1166.C1 (clade AE) (HIV)
[11] = target: Env of HIV isolate QH209.14M.A2 (clade A) (HIV)
[12] = target: Env of HIV isolate C1080.c3 (clade AE) (HIV)
[13] = target: HIV Env of isolate 3873.v1.c24 (HIV)
[14] = target: Env of HIV isolate R3265.c6 (clade AE) (HIV)
[15] = target: Env of HIV isolate TZA125.17 (clade C) (HIV)
[16] = target: Env of HIV isolate ZM197.7 (clade C) (HIV)
[17] = target: Env of HIV isolate Q168.a2 (clade AD) (HIV)
[18] = target: Env of HIV isolate 246-F3.C10.2 (clade AC) (HIV)
[19] = target: Env of HIV isolate Q461.e2 (clade AD) (HIV)
[20] = target: HIV Env of isolate CH119.10 (HIV)
[21] = target: Envelope protein of SIVmac251.30.SG3 (clade NA)
[22] = target: HIV Env of isolate 6631.v3.c10 (HIV)
[23] = target: Env of HIV isolate RW020.2 (clade A) (HIV)
[24] = target: Env of HIV isolate DU172.17 (clade C) (HIV)
[25] = target: Env of HIV isolate KER2008.12 (clade A) (HIV)
[26] = target: HIV Env of isolate TV1.29 (HIV)
[27] = target: Env of HIV isolate TH023.6 (clade AE) (HIV)
[28] = target: HIV Env of isolate 0077.v1.c16 (HIV)
[29] = target: HIV Env of isolate 247-23 (HIV)
[30] = target: HIV Env of isolate ZM215.8 (HIV)
[31] = target: Env of HIV isolate HXB2.DG (clade B) (HIV)
[32] = target: Env of HIV isolate MB539.2B7 (clade A) (HIV)
[33] = target: Env of HIV isolate BG1168.01 (clade B) (HIV)
[34] = target: Env of HIV isolate M02138 (clade AE) (HIV)
[35] = target: Env of HIV isolate X1632.S2.B10 (clade G) (HIV)
[36] = target: HIV Env of isolate X1193.c1 (HIV)
[37] = target: Env of HIV isolate BS208.B1 (clade A) (HIV)
[38] = target: Env of HIV isolate SO18.18 (clade C) (HIV)
[39] = target: Env of HIV isolate 0815.v3.c3 (clade ACD) (HIV)
[40] = target: HIV Env of isolate TZA125.17 (HIV)
[41] = target: Env of HIV isolate X2131.C1.B5 (clade G) (HIV)
[42] = target: HIV Env of isolate ZM176.66 (HIV)
[43] = target: Env of HIV isolate 6540.v4.c1 (clade AC) (HIV)
[44] = target: HIV Env of isolate ZM249.1 (HIV)
[45] = target: Env of HIV isolate X2088.c9 (clade G) (HIV)
[46] = target: Env of HIV isolate MW965.26 (clade C) (HIV)
[47] = target: Env of HIV isolate 3016.v5.c45 (clade D) (HIV)
[48] = target: Env of HIV isolate 0013095-2.11 (clade C) (HIV)
[49] = target: Env of HIV isolate BJOX009000.02.4 (clade AE) (HIV)
[50] = target: Env of HIV isolate 7165.18 (clade B) (HIV)

B1: ePGT121.18.17 (ePGT121.18.H17 VH and ePGT121.17.L1 VL) (antibody, V domains shown)
VH: QMQLQESGPGLVKPGETLSLTCSVSGASISSSYWSWLRETPGKGLEWIGYTHHSGDTNYAPSLKSRVTIGLDPSKNQVSLSLTSVTAADTAVYYCARTLHGRRIYGVVAFNEYYTYFYWPTWGKGTQVTVSS
VL: SDISVAPGETVRITCGGESIGSRAVQWYQHRPGQAPRLIIYNNQDRPPGIPERFSGSPDIDFGTTATLTISNVEAGDEATYYCHIWDSRRPTNWELGPGTTLTVL
B1 gave an IC80, pseudovirus neutralization [1] of 0.011 µg/mL, an IC50, pseudovirus neutralization [2] of 0.016 µg/mL and an IC50, pseudovirus neutralization [3] of over 50 µg/mL. For the same binder, the IC80, pseudovirus neutralization [4] was over 50 µg/mL, the IC80, pseudovirus neutralization [5] was 0.047 µg/mL and the IC50, pseudovirus neutralization [6] was over 50 µg/mL. For the same binder, the IC50, pseudovirus neutralization [7] was 0.007 µg/mL, the IC80, pseudovirus neutralization [8] was 0.019 µg/mL and the IC50, pseudovirus neutralization [9] was 0.009 µg/mL. It also gave an IC50, pseudovirus neutralization [10] of over 50 µg/mL, an IC50, pseudovirus neutralization [11] of over 50 µg/mL and an IC50, pseudovirus neutralization [12] of over 50 µg/mL. For the same binder, the IC80, pseudovirus neutralization [13] was 0.02 µg/mL, the IC50, pseudovirus neutralization [14] was over 50 µg/mL and the IC50, pseudovirus neutralization [15] was 0.18 µg/mL. It also gave an IC50, pseudovirus neutralization [16] of over 50 µg/mL, an IC50, pseudovirus neutralization [17] of 1.52 µg/mL and an IC50, pseudovirus neutralization [18] of 18.5 µg/mL. For the same binder, the IC50, pseudovirus neutralization [19] was over 50 µg/mL, the IC80, pseudovirus neutralization [20] was 0.028 µg/mL and the IC50, pseudovirus neutralization [21] was over 50 µg/mL. For the same binder, the IC80, pseudovirus neutralization [22] was 0.269 µg/mL, the IC50, pseudovirus neutralization [23] was 0.003 µg/mL and the IC50, pseudovirus neutralization [24] was 0.007 µg/mL. It also gave an IC50, pseudovirus neutralization [25] of 0.01 µg/mL, an IC80, pseudovirus neutralization [26] of 0.031 µg/mL and an IC50, pseudovirus neutralization [27] of over 50 µg/mL. It also gave an IC80, pseudovirus neutralization [28] of over 50 µg/mL, an IC80, pseudovirus neutralization [29] of over 50 µg/mL and an IC80, pseudovirus neutralization [30] of 0.048 µg/mL. It also gave an IC50, pseudovirus neutralization [31] of 0.016 µg/mL, an IC50, pseudovirus neutralization [32] of over 50 µg/mL and an IC50, pseudovirus neutralization [33] of over 50 µg/mL. For the same binder, the IC50, pseudovirus neutralization [34] was over 50 µg/mL, the IC50, pseudovirus neutralization [35] was over 50 µg/mL and the IC80, pseudovirus neutralization [36] was 0.013 µg/mL. For the same binder, the IC50, pseudovirus neutralization [37] was over 50 µg/mL, the IC50, pseudovirus neutralization [38] was 0.004 µg/mL and the IC50, pseudovirus neutralization [39] was 0.005 µg/mL. It also gave an IC80, pseudovirus neutralization [40] of 0.549 µg/mL, an IC50, pseudovirus neutralization [41] of 0.002 µg/mL and an IC80, pseudovirus neutralization [42] of 0.454 µg/mL. The IC50, pseudovirus neutralization [43] was over 50 µg/mL, the IC80, pseudovirus neutralization [44] was 4.25 µg/mL and the IC50, pseudovirus neutralization [45] was 0.006 µg/mL. It also gave an IC50, pseudovirus neutralization [46] of 0.004 µg/mL, an IC50, pseudovirus neutralization [47] of over 50 µg/mL and an IC50, pseudovirus neutralization [48] of 1.68 µg/mL. It also gave an IC50, pseudovirus neutralization [49] of 0.156 µg/mL and an IC50, pseudovirus neutralization [50] of 0.006 µg/mL.

Reference: patent US20210292396A1
